B1: PYC_HUMAN (protein, UniProt P11498 21-1178, looked up)
Pyruvate carboxylase, …: TAPAASPNVRRLEYKPIKKVMVANRGEIAIRVFRACTELGIRTVAIYSEQDTGQMHRQKADEAYLIGRGLAPVQAYLHIPDIIKVAKENNVDAVHPGYGFLSERADFAQACQDAGVRFIGPSPEVVRKMGDKVEARAIAIAAGVPVVPGTDAPITSLHEAHEFSNTYGFPIIFKAAYGGGGRGMRVVHSYEELEENYTRAYSEALAAFGNGALFVEKFIEKPRHIEVQILGDQYGNILHLYERDCSIQRRHQKVVEIAPAAHLDPQLRTRLTSDSVKLAKQVGYENAGTVEFLVDRHGKHYFIEVNSRLQVEHTVTEEITDVDLVHAQIHVAEGRSLPDLGLRQENIRINGCAIQCRVTTEDPARSFQPDTGRIEVFRSGEGMGIRLDNASAFQGAVISPHYDSLLVKVIAHGKDHPTAATKMSRALAEFRVRGVKTNIAFLQNVLNNQQFLAGTVDTQFIDENPELFQLRPAQNRAQKLLHYLGHVMVNGPTTPIPVKASPSPTDPVVPAVPIGPPPAGFRDILLREGPEGFARAVRNHPGLLLMDTTFRDAHQSLLATRVRTHDLKKIAPYVAHNFSKLFSMENWGGATFDVAMRFLYECPWRRLQELRELIPNIPFQMLLRGANAVGYTNYPDNVVFKFCEVAKENGMDVFRVFDSLNYLPNMLLGMEAAGSAGGVVEAAISYTGDVADPSRTKYSLQYYMGLAEELVRAGTHILCIKDMAGLLKPTACTMLVSSLRDRFPDLPLHIHTHDTSGAGVAAMLACAQAGADVVDVAADSMSGMTSQPSMGALVACTRGTPLDTEVPMERVFDYSEYWEGARGLYAAFDCTATMKSGNSDVYENEIPGGQYTNLHFQAHSMGLGSKFKEVKKAYVEANQMLGDLIKVTPSSKIVGDLAQFMVQNGLSRAEAEAQAEELSFPRSVVEFLQGYIGVPHGGFPEPFRSKVLKDLPRVEGRPGASLPPLDLQALEKELVDRHGEEVTPEDVLSAAMYPDVFAHFKDFTATFGPLDSLNTRLFLQGPKIAEEFEVELERGKTLHIKALAVSDLNRAGQRQVFFELNGQLRSILVKDTQAMKEMHFHPKALKDVKGQIGAPMPGKVIDIKVVAGAKVAKGQPLCVLSAMKMETVVTSPMEGTVRKVHVTKDMTLEGDDLILEIE
B2: PRP16_HUMAN (protein, UniProt Q92620 2-1227, looked up)
Pre-mRNA-splicing factor …: GDTSEDASIHRLEGTDLDCQVGGLICKSKSAASEQHVFKAPAPRPSLLGLDLLASLKRREREEKDDGEDKKKSKVSSYKDWEESKDDQKDAEEEGGDQAGQNIRKDRHYRSARVETPSHPGGVSEEFWERSRQRERERREHGVYASSKEEKDWKKEKSRDRDYDRKRDRDERDRSRHSSRSERDGGSERSSRRNEPESPRHRPKDAATPSRSTWEEEDSGYGSSRRSQWESPSPTPSYRDSERSHRLSTRDRDRSVRGKYSDDTPLPTPSYKYNEWADDRRHLGSTPRLSRGRGRREEGEEGISFDTEEERQQWEDDQRQADRDWYMMDEGYDEFHNPLAYSSEDYVRRREQHLHKQKQKRISAQRRQINEDNERWETNRMLTSGVVHRLEVDEDFEEDNAAKVHLMVHNLVPPFLDGRIVFTKQPEPVIPVKDATSDLAIIARKGSQTVRKHREQKERKKAQHKHWELAGTKLGDIMGVKKEEEPDKAVTEDGKVDYRTEQKFADHMKRKSEASSEFAKKKSILEQRQYLPIFAVQQELLTIIRDNSIVIVVGETGSGKTTQLTQYLHEDGYTDYGMIGCTQPRRVAAMSVAKRVSEEMGGNLGEEVGYAIRFEDCTSENTLIKYMTDGILLRESLREADLDHYSAIIMDEAHERSLNTDVLFGLLREVVARRSDLKLIVTSATMDAEKFAAFFGNVPIFHIPGRTFPVDILFSKTPQEDYVEAAVKQSLQVHLSGAPGDILIFMPGQEDIEVTSDQIVEHLEELENAPALAVLPIYSQLPSDLQAKIFQKAPDGVRKCIVATNIAETSLTVDGIMFVIDSGYCKLKVFNPRIGMDALQIYPISQANANQRSGRAGRTGPGQCFRLYTQSAYKNELLTTTVPEIQRTNLANVVLLLKSLGVQDLLQFHFMDPPPEDNMLNSMYQLWILGALDNTGGLTSTGRLMVEFPLDPALSKMLIVSCDMGCSSEILLIVSMLSVPAIFYRPKGREEESDQIREKFAVPESDHLTYLNVYLQWKNNNYSTIWCNDHFIHAKAMRKVREVRAQLKDIMVQQRMSLASCGTDWDIVRKCICAAYFHQAAKLKGIGEYVNIRTGMPCHLHPTSSLFGMGYTPDYIVYHELVMTTKEYMQCVTAVDGEWLAELGPMFYSVKQAGKSRQENRRRAKEEASAMEEEMALAEEQLRARRQEQEKRSPLGSVRSTKIYTPGRKEQGEPMTPRRTPARFGL
B3: RRP44_HUMAN (protein, UniProt Q9Y2L1 1-958, looked up)
Exosome complex exonuclease …: MLKSKTFLKKTRAGGVMKIVREHYLRDDIGCGAPGCAACGGAHEGPALEPQPQDPASSVCPQPHYLLPDTNVLLHQIDVLEDPAIRNVIVLQTVLQEVRNRSAPVYKRIRDVTNNQEKHFYTFTNEHHRETYVEQEQGENANDRNDRAIRVAAKWYNEHLKKMSADNQLQVIFITNDRRNKEKAIEEGIPAFTCEEYVKSLTANPELIDRLACLSEEGNEIESGKIIFSEHLPLSKLQQGIKSGTYLQGTFRASRENYLEATVWIHGDNEENKEIILQGLKHLNRAVHEDIVAVELLPKSQWVAPSSVVLHDEGQNEEDVEKEEETERMLKTAVSEKMLKPTGRVVGIIKRNWRPYCGMLSKSDIKESRRHLFTPADKRIPRIRIETRQASTLEGRRIIVAIDGWPRNSRYPNGHFVRNLGDVGEKETETEVLLLEHDVPHQPFSQAVLSFLPKMPWSITEKDMKNREDLRHLCICSVDPPGCTDIDDALHCRELENGNLEVGVHIADVSHFIRPGNALDQESARRGTTVYLCEKRIDMVPELLSSNLCSLKCDVDRLAFSCIWEMNHNAEILKTKFTKSVINSKASLTYAEAQLRIDSANMNDDITTSLRGLNKLAKILKKRRIEKGALTLSSPEVRFHMDSETHDPIDLQTKELRETNSMVEEFMLLANISVAKKIHEEFSEHALLRKHPAPPPSNYEILVKAARSRNLEIKTDTAKSLAESLDQAESPTFPYLNTLLRILATRCMMQAVYFCSGMDNDFHHYGLASPIYTHFTSPIRRYADVIVHRLLAVAIGADCTYPELTDKHKLADICKNLNFRHKMAQYAQRASVAFHTQLFFKSKGIVSEEAYILFVRKNAIVVLIPKYGLEGTVFFEEKDKPNPQLIYDDEIPSLKIEDTVFHVFDKVKVKIMLDSSNLQHQKIRMSLVEPQIPGISIPTDTSNMDLNGPKKKKMKLGK
B4: SF3B1_HUMAN (protein, UniProt O75533 1-1304, looked up)
Splicing factor 3B subunit 1: MAKIAKTHEDIEAQIREIQGKKAALDEAQGVGLDSTGYYDQEIYGGSDSRFAGYVTSIAATELEDDDDDYSSSTSLLGQKKPGYHAPVALLNDIPQSTEQYDPFAEHRPPKIADREDEYKKHRRTMIISPERLDPFADGGKTPDPKMNARTYMDVMREQHLTKEEREIRQQLAEKAKAGELKVVNGAAASQPPSKRKRRWDQTADQTPGATPKKLSSWDQAETPGHTPSLRWDETPGRAKGSETPGATPGSKIWDPTPSHTPAGAATPGRGDTPGHATPGHGGATSSARKNRWDETPKTERDTPGHGSGWAETPRTDRGGDSIGETPTPGASKRKSRWDETPASQMGGSTPVLTPGKTPIGTPAMNMATPTPGHIMSMTPEQLQAWRWEREIDERNRPLSDEELDAMFPEGYKVLPPPAGYVPIRTPARKLTATPTPLGGMTGFHMQTEDRTMKSVNDQPSGNLPFLKPDDIQYFDKLLVDVDESTLSPEEQKERKIMKLLLKIKNGTPPMRKAALRQITDKAREFGAGPLFNQILPLLMSPTLEDQERHLLVKVIDRILYKLDDLVRPYVHKILVVIEPLLIDEDYYARVEGREIISNLAKAAGLATMISTMRPDIDNMDEYVRNTTARAFAVVASALGIPSLLPFLKAVCKSKKSWQARHTGIKIVQQIAILMGCAILPHLRSLVEIIEHGLVDEQQKVRTISALAIAALAEAATPYGIESFDSVLKPLWKGIRQHRGKGLAAFLKAIGYLIPLMDAEYANYYTREVMLILIREFQSPDEEMKKIVLKVVKQCCGTDGVEANYIKTEILPPFFKHFWQHRMALDRRNYRQLVDTTVELANKVGAAEIISRIVDDLKDEAEQYRKMVMETIEKIMGNLGAADIDHKLEEQLIDGILYAFQEQTTEDSVMLNGFGTVVNALGKRVKPYLPQICGTVLWRLNNKSAKVRQQAADLISRTAVVMKTCQEEKLMGHLGVVLYEYLGEEYPEVLGSILGALKAIVNVIGMHKMTPPIKDLLPRLTPILKNRHEKVQENCIDLVGRIADRGAEYVSAREWMRICFELLELLKAHKKAIRRATVNTFGYIAKAIGPHDVLATLLNNLKVQERQNRVCTTVAIAIVAETCSPFTVLPALMNEYRVPELNVQNGVLKSLSFLFEYIGEMGKDYIYAVTPLLEDALMDRDLVHRQTASAVVQHMSLGVYGFGCEDSLNHLLNYVWPNVFETSPHVIQAVMGALEGLRVAIGPCRMLQYCLQGLFHPARKVRDVYWKIYNSIYIGSQDALIAHYPRIYNDDKNTYIRYELDYIL
B5: IPO5_HUMAN (protein, UniProt O00410 2-1097, looked up)
Importin-5: AAAAAEQQQFYLLLGNLLSPDNVVRKQAEETYENIPGQSKITFLLQAIRNTTAAEEARQMAAVLLRRLLSSAFDEVYPALPSDVQTAIKSELLMIIQMETQSSMRKKVCDIAAELARNLIDEDGNNQWPEGLKFLFDSVSSQNVGLREAALHIFWNFPGIFGNQQQHYLDVIKRMLVQCMQDQEHPSIRTLSARATAAFILANEHNVALFKHFADLLPGFLQAVNDSCYQNDDSVLKSLVEIADTVPKYLRPHLEATLQLSLKLCGDTSLNNMQRQLALEVIVTLSETAAAMLRKHTNIVAQTIPQMLAMMVDLEEDEDWANADELEDDDFDSNAVAGESALDRMACGLGGKLVLPMIKEHIMQMLQNPDWKYRHAGLMALSAIGEGCHQQMEGILNEIVNFVLLFLQDPHPRVRYAACNAVGQMATDFAPGFQKKFHEKVIAALLQTMEDQGNQRVQAHAAAALINFTEDCPKSLLIPYLDNLVKHLHSIMVLKLQELIQKGTKLVLEQVVTSIASVADTAEEKFVPYYDLFMPSLKHIVENAVQKELRLLRGKTIECISLIGLAVGKEKFMQDASDVMQLLLKTQTDFNDMEDDDPQISYMISAWARMCKILGKEFQQYLPVVMGPLMKTASIKPEVALLDTQDMENMSDDDGWEFVNLGDQQSFGIKTAGLEEKSTACQMLVCYAKELKEGFVEYTEQVVKLMVPLLKFYFHDGVRVAAAESMPLLLECARVRGPEYLTQMWHFMCDALIKAIGTEPDSDVLSEIMHSFAKCIEVMGDGCLNNEHFEELGGILKAKLEEHFKNQELRQVKRQDEDYDEQVEESLQDEDDNDVYILTKVSDILHSIFSSYKEKVLPWFEQLLPLIVNLICPHRPWPDRQWGLCIFDDVIEHCSPASFKYAEYFLRPMLQYVCDNSPEVRQAAAYGLGVMAQYGGDNYRPFCTEALPLLVRVIQSADSKTKENVNATENCISAVGKIMKFKPDCVNVEEVLPHWLSWLPLHEDKEEAVQTFNYLCDLIESNHPIVLGPNNTNLPKIFSIIAEGEMHEAIKHEDPCAKRLANVVRQVQTSGGLWTECIAQLSPEQQAAIQELLNSA
B6: KRT83_HUMAN (protein, UniProt P78385 1-493, looked up)
Keratin, type II cuticular Hb3: MTCGFNSIGCGFRPGNFSCVSACGPRPSRCCITAAPYRGISCYRGLTGGFGSHSVCGGFRAGSCGRSFGYRSGGVCGPSPPCITTVSVNESLLTPLNLEIDPNAQCVKQEEKEQIKSLNSRFAAFIDKVRFLEQQNKLLETKLQFYQNRECCQSNLEPLFAGYIETLRREAECVEADSGRLASELNHVQEVLEGYKKKYEEEVALRATAENEFVALKKDVDCAYLRKSDLEANVEALIQEIDFLRRLYEEEIRILQSHISDTSVVVKLDNSRDLNMDCIVAEIKAQYDDIATRSRAEAESWYRSKCEEMKATVIRHGETLRRTKEEINELNRMIQRLTAEVENAKCQNSKLEAAVAQSEQQGEAALSDARCKLAELEGALQKAKQDMACLIREYQEVMNSKLGLDIEIATYRRLLEGEEQRLCEGVEAVNVCVSSSRGGVVCGDLCVSGSRPVTGSVCSAPCNGNLVVSTGLCKPCGQLNTTCGGGSCGQGRH

The molecules below were run on KDM4A-I71AzF (assay: CASI: photo-crosslinking with HEK293T cell extracts, StrepTactin enrichment and LC-MS/MS proteomics). Conditions: sheet "Final results but with 0.01".
Format: binding, human
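Further: lysates from HEK293T cells pretreated with a KDM4 inhibitor to raise proteome methylation, affinity-purified after ±UV, gel-resolved, trypsin-digested, with exclusive unique peptides per protein averaged per condition.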

Going from B1 to B2, the “Fold change (+UV/-UV)” value falls from 0.3333 to 0.

First: B3
Second: B4
The “Fold change (+UV/-UV)” value of the first is lower: 0.6 for the first, 2 for the second.

First: B5
Second: B6
The “Fold change (+UV/-UV)” value of the first is lower: 1 for the first, 10 for the second.

From article PMC10540216, “Activity Guided Azide-methyllysine Photo-trapping for Substrate Profiling of Lysine Demethylases” (Journal of the American Chemical Society, 2023)
